Test results reported in the supplement of paper PMC10567573.

B1: TRIM55 (parent)
chain: ICPICLEMFTKPVVILPCQHNLCR
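Note: lentivirally expressed fusions sorted by FACS into six bins by GFP to DsRed ratio, PSI derived from sequencing read proportions per bin multiplied by bin number.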

Variants of: B1
Experiment: protein stability index of a GFP-peptide fusion (GPS, HEK-293T) (PSI 1-6); higher = more stable
Details: c terminus: a fixed tail appended
ICPICLEMFTRPVVILPCQHNLCR [K11R] gave a protein stability index of 1.87. With ICPICLEMFTYPVVILPCQHNLCR [K11Y] the protein stability index was 1.69. ICPICLEMFTLPVVILPCQHNLCR [K11L] showed a protein stability index of 1.9. With ICPICLEMFTNPVVILPCQHNLCR [K11N] the protein stability index was 2.32. In the case of ICPICLEMFTVPVVILPCQHNLCR [K11V], the protein stability index is reported as 1.98. ICPICLEMFTFPVVILPCQHNLCR [K11F] showed a protein stability index of 2.2. In the case of ICPICLEMFTPPVVILPCQHNLCR [K11P], the protein stability index is reported as 2.35. ICPICLEMFTCPVVILPCQHNLCR [K11C] showed a protein stability index of 2.51. Work on ICPICLEMFTDPVVILPCQHNLCR [K11D] yielded a protein stability index of 3.28. For ICPICLEMFTHPVVILPCQHNLCR [K11H], the protein stability index was 2.4. ICPICLEMFTSPVVILPCQHNLCR [K11S] showed a protein stability index of 2.67. For ICPICLEMFTQPVVILPCQHNLCR [K11Q], the protein stability index was 2.6. ICPICLEMFTAPVVILPCQHNLCR [K11A] showed a protein stability index of 3.04. Variant ICPICLEMFTIPVVILPCQHNLCR [K11I] has a protein stability index of 2.29. In the case of ICPICLEMFTGPVVILPCQHNLCR [K11G], the protein stability index is reported as 2.56. For ICPICLEMFTTPVVILPCQHNLCR [K11T], the protein stability index was 2.26. With ICPICLEMFTEPVVILPCQHNLCR [K11E] the protein stability index was 2.83. With ICPICLEMFTWPVVILPCQHNLCR [K11W] the protein stability index was 1.93. For ICPICLEMFTKPVPILPCQHNLCR [V14P], the protein stability index was 2.56. In the case of ICPICLEMFTKPVTILPCQHNLCR [V14T], the protein stability index is reported as 2.63. Work on ICPICLEMFTKPVFILPCQHNLCR [V14F] yielded a protein stability index of 2.49. Work on ICPICLEMFTKPVEILPCQHNLCR [V14E] yielded a protein stability index of 3.02. In the case of ICPICLEMFTKPVSILPCQHNLCR [V14S], the protein stability index is reported as 3.12. In the case of ICPICLEMFTKPVQILPCQHNLCR [V14Q], the protein stability index is reported as 2.59. In the case of ICPICLEMFTKPVGILPCQHNLCR [V14G], the protein stability index is reported as 2.54. With ICPICLEMFTKPVLILPCQHNLCR [V14L] the protein stability index was 2.29. In the case of ICPICLEMFTKPVWILPCQHNLCR [V14W], the protein stability index is reported as 1.89. Work on ICPICLEMFTKPVMILPCQHNLCR [V14M] yielded a protein stability index of 2.98. In the case of ICPICLEMFTKPVNILPCQHNLCR [V14N], the protein stability index is reported as 2.93. In the case of ICPICLEMFTKPVAILPCQHNLCR [V14A], the protein stability index is reported as 2.56. For ICPICLEMFTKPVDILPCQHNLCR [V14D], the protein stability index was 3.31. ICPICLEMFTKPVCILPCQHNLCR [V14C] showed a protein stability index of 2.32. With ICPICLEMFTKPVRILPCQHNLCR [V14R] the protein stability index was 2.47. For ICPICLEMFTKPVHILPCQHNLCR [V14H], the protein stability index was 2.82. Work on ICPICLEMFTKPVIILPCQHNLCR [V14I] yielded a protein stability index of 2.4. Variant ICPICLEMFTKPVYILPCQHNLCR [V14Y] has a protein stability index of 2.15. In the case of ICPICLEMFTKPVKILPCQHNLCR [V14K], the protein stability index is reported as 2.33. Work on ICPICLEMFTKPVVILPCLHNLCR [Q19L] yielded a protein stability index of 1.84. In the case of ICPICLEMFTKPVVILPCMHNLCR [Q19M], the protein stability index is reported as 2.15. Variant ICPICLEMFTKPVVILPCCHNLCR [Q19C] has a protein stability index of 1.98. ICPICLEMFTKPVVILPCEHNLCR [Q19E] gave a protein stability index of 2.28. ICPICLEMFTKPVVILPCAHNLCR [Q19A] gave a protein stability index of 2.05. Work on ICPICLEMFTKPVVILPCIHNLCR [Q19I] yielded a protein stability index of 2.68. ICPICLEMFTKPVVILPCNHNLCR [Q19N] gave a protein stability index of 2.34. Work on ICPICLEMFTKPVVILPCDHNLCR [Q19D] yielded a protein stability index of 2.54. In the case of ICPICLEMFTKPVVILPCPHNLCR [Q19P], the protein stability index is reported as 2.12. For ICPICLEMFTKPVVILPCWHNLCR [Q19W], the protein stability index was 1.61. Work on ICPICLEMFTKPVVILPCSHNLCR [Q19S] yielded a protein stability index of 2.23. Variant ICPICLEMFTKPVVILPCFHNLCR [Q19F] has a protein stability index of 2.05. In the case of ICPICLEMFTKPVVILPCRHNLCR [Q19R], the protein stability index is reported as 2.25. Variant ICPICLEMFTKPVVILPCKHNLCR [Q19K] has a protein stability index of 2.01. Work on ICPICLEMFTKPVVILPCVHNLCR [Q19V] yielded a protein stability index of 2.18. For ICPICLEMFTKPVVILPCTHNLCR [Q19T], the protein stability index was 1.98. Work on ICPICLEMFTKPVVILPCHHNLCR [Q19H] yielded a protein stability index of 2.09. ICPICLEMFTKPVVILPCYHNLCR [Q19Y] gave a protein stability index of 2.31. With ICPICLEMFTKPVVILPCGHNLCR [Q19G] the protein stability index was 2.85. ICPICLEMFTKPVVIVPCQHNLCR [L16V] gave a protein stability index of 2.68. ICPICLEMFTKPVVITPCQHNLCR [L16T] showed a protein stability index of 2.77. In the case of ICPICLEMFTKPVVIAPCQHNLCR [L16A], the protein stability index is reported as 2.56. ICPICLEMFTKPVVIRPCQHNLCR [L16R] showed a protein stability index of 2.24. In the case of ICPICLEMFTKPVVIPPCQHNLCR [L16P], the protein stability index is reported as 3.02. With ICPICLEMFTKPVVIDPCQHNLCR [L16D] the protein stability index was 2.61. Variant ICPICLEMFTKPVVISPCQHNLCR [L16S] has a protein stability index of 2.4. Variant ICPICLEMFTKPVVIQPCQHNLCR [L16Q] has a protein stability index of 2.62. ICPICLEMFTKPVVIHPCQHNLCR [L16H] showed a protein stability index of 2.86. Variant ICPICLEMFTKPVVINPCQHNLCR [L16N] has a protein stability index of 2.67. ICPICLEMFTKPVVIFPCQHNLCR [L16F] showed a protein stability index of 2.12. ICPICLEMFTKPVVIWPCQHNLCR [L16W] gave a protein stability index of 2.38. For ICPICLEMFTKPVVIEPCQHNLCR [L16E], the protein stability index was 2.35. ICPICLEMFTKPVVICPCQHNLCR [L16C] showed a protein stability index of 2.4. Work on ICPICLEMFTKPVVIIPCQHNLCR [L16I] yielded a protein stability index of 2.05. For ICPICLEMFTKPVVIYPCQHNLCR [L16Y], the protein stability index was 2.39. With ICPICLEMFTKPVVIKPCQHNLCR [L16K] the protein stability index was 2.58. In the case of ICPICLEMFTKPVVIMPCQHNLCR [L16M], the protein stability index is reported as 2.38. In the case of ICPICLEMFTKPVVIGPCQHNLCR [L16G], the protein stability index is reported as 3.03. ICPICLEMFTKPVVILPLQHNLCR [C18L] showed a protein stability index of 1.77. ICPICLEMFTKPVVILPGQHNLCR [C18G] gave a protein stability index of 2.26. With ICPICLEMFTKPVVILPTQHNLCR [C18T] the protein stability index was 1.98. ICPICLEMFTKPVVILPIQHNLCR [C18I] gave a protein stability index of 2.02. For ICPICLEMFTKPVVILPYQHNLCR [C18Y], the protein stability index was 1.79. With ICPICLEMFTKPVVILPHQHNLCR [C18H] the protein stability index was 2.27. For ICPICLEMFTKPVVILPMQHNLCR [C18M], the protein stability index was 2.16. ICPICLEMFTKPVVILPPQHNLCR [C18P] showed a protein stability index of 2.11. For ICPICLEMFTKPVVILPWQHNLCR [C18W], the protein stability index was 1.95. ICPICLEMFTKPVVILPFQHNLCR [C18F] showed a protein stability index of 1.89. ICPICLEMFTKPVVILPNQHNLCR [C18N] gave a protein stability index of 1.81. For ICPICLEMFTKPVVILPEQHNLCR [C18E], the protein stability index was 2.48. For ICPICLEMFTKPVVILPDQHNLCR [C18D], the protein stability index was 2.53. In the case of ICPICLEMFTKPVVILPVQHNLCR [C18V], the protein stability index is reported as 1.91. ICPICLEMFTKPVVILPQQHNLCR [C18Q] gave a protein stability index of 2.19. Variant ICPICLEMFTKPVVILPRQHNLCR [C18R] has a protein stability index of 1.45. ICPICLEMFTKPVVILPSQHNLCR [C18S] gave a protein stability index of 2.23. In the case of ICPICLEMFTKPVVILPKQHNLCR [C18K], the protein stability index is reported as 1.89. Work on ICPICLEMFTKPVVILPAQHNLCR [C18A] yielded a protein stability index of 1.75.
